To fix the notation:
B1: TPR 5TU (parent)
chain: GGAUCUUCUCGAUCUAACAAAAAAGACAAAUCUGCCACAAAGCUUGAGAGCAUCUUCGGAUGCAGAGGCGGCAGCCUUCGGUGGCGCGAUAGCGCCAACGUUCUCAACUAUGACACGCAAAACGCGUGCUCCGUUGAAUGGAGUUUAUCAUG

This sample holds only a part of the variants without activity.

The variants in the data set derive from B1. The data set is described as follows: polymerase ribozyme fitness, log enrichment relative to wild type (log ratio); higher = more active; in vitro selection for triplet polymerase activity. In outline: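 Libraries of mutants in each subunit of a heterodimeric triplet polymerase ribozyme were generated by PCR and transcribed. In triplicate, each went through one in vitro selection round: annealing with biotinylated primer, partner subunit and triplets; frozen incubation at −7 °C; gel excision of extended constructs; streptavidin-bead capture; RT-PCR. Fitness, taken from Illumina sequencing of input and output libraries, is the logarithm of a genotype's enrichment over wild-type enrichment, averaged across replicates with inverse-variance weights. The logarithm is base 2, and genotypes needed ≥10 input reads and ≥1 read per output to be kept.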
For the variant C8G A40U U53A C87A C108G, the “polymerase ribozyme fitness (log ratio)” value is ≤ -4.2.
The result for A47C G83A G92U C108U reads ≤ -4.2; that for G59A U61A C79U G83A A121C, ≤ -4.2; that for C27G U55A A60G C125U, ≤ -4.2.
U15A A20C G74C G81A C105G U135G U145G U148A: the “polymerase ribozyme fitness (log ratio)” value was ≤ -4.2.
In the case of U4G C18U C51U G80C A91G C95G C105U U109A A119U, the “polymerase ribozyme fitness (log ratio)” value is ≤ -4.2.
The result for U7A C54A G58C G92C A107U C116A reads ≤ -4.2; that for G42C G59A C93G A106C, ≤ -4.2.
The value for A120C G152A was -2.33; that for U56A C93A A106G was -1.97; that for A64U C79U C87A A137G was ≤ -4.2.
The value for C79G G124A was -3.82; that for G58U C96U was -0.236; that for C57U G62A C63U C87A G141A C149U was ≤ -4.2.
For the variant A21G C27U C38A C93G U101A U146C, the “polymerase ribozyme fitness (log ratio)” value is ≤ -4.2.
The value for A20G C87U was -1.06; that for A39U G86A U102G C103G A106C was ≤ -4.2; that for A49U U148C was -3.02.
The result for U15G C43U C57A C85G A106C reads ≤ -4.2; that for A47C U148A, -3.16.
Consider A37G A52G C54A, for which the “polymerase ribozyme fitness (log ratio)” value is -2.77.
The value for A22U was 0.491.
Take U61G G67A G68U C87A A107U G126C C149G: the “polymerase ribozyme fitness (log ratio)” value is ≤ -4.2.
With G62U C76U C85G, the “polymerase ribozyme fitness (log ratio)” value was -2.1.
Turning to U31C C51A G74U G84A C87A A113G A115C, the “polymerase ribozyme fitness (log ratio)” value is ≤ -4.2.
The result for C8G A16U A37C A73C G84A U139C reads ≤ -4.2; that for A12G A22C U101G U127C, -1.93; that for C10G C87A C93U, ≤ -4.2.
Regarding G11C C93A, the “polymerase ribozyme fitness (log ratio)” value is -3.87.
In the case of G42U A52C A66G C76A U90G C95A A106C C108G, the “polymerase ribozyme fitness (log ratio)” value was ≤ -4.2.
Regarding C85U G140C, the “polymerase ribozyme fitness (log ratio)” value is -2.76.
The result for G81C C85A A142G reads -1.69; that for G48C C57A C99U U130C, -2.37.
Consider A30U A89U C93U A120G C125G G141A G143A A147C, for which the “polymerase ribozyme fitness (log ratio)” value was ≤ -4.2.
On to A60U C129G, for which the “polymerase ribozyme fitness (log ratio)” value was -3.43.
As to G58A C63A, the “polymerase ribozyme fitness (log ratio)” value worked out at 0.255.
The value for A110G U144G was -3.13; that for C75G G92A C105G C114G U146C was ≤ -4.2; that for U13G A106C was -1.83.
In the case of C57U C149U, the “polymerase ribozyme fitness (log ratio)” value was -1.28.
As to C96G A107C C108A A120U G136U, the “polymerase ribozyme fitness (log ratio)” value was -3.81.
Turning to C79A, the “polymerase ribozyme fitness (log ratio)” value was -4.12.
The value for C5G A29U U55G U78A G92C C118U U145A was ≤ -4.2; that for A28U G94A was ≤ -4.2; that for C18A A20G A24C C27G U82C G126U was ≤ -4.2.
Regarding U4C U55A G86U, the “polymerase ribozyme fitness (log ratio)” value is -2.08.
With A12U G59C A89U A91U U101C U144C, the “polymerase ribozyme fitness (log ratio)” value was ≤ -4.2.
As to A52G U55A, the “polymerase ribozyme fitness (log ratio)” value was -0.0825.
The result for A21C C57U C87G G126C A137C reads ≤ -4.2; that for A3G U53A C54U C95U, -1.48; that for U31A A52C U104G U134G, ≤ -4.2.
The result for A73U U148C G152C reads ≤ -4.2; that for G48U C132A U139G, -3.31; that for C51A A64G C87A G128U G140C, ≤ -4.2.
For the variant U56A G83A, the “polymerase ribozyme fitness (log ratio)” value is -0.831.
A21U A41C G65A C85A: the “polymerase ribozyme fitness (log ratio)” value is ≤ -4.2.
The result for U4G U61G C76G C93G C103U reads ≤ -4.2; that for G42C G86U A150U, ≤ -4.2; that for G81A C96A A98C, -0.656.
The value for C14U A19G U31C A39C G50A A66U G68U C93G was ≤ -4.2.
The value for G88U C96G A106U G143A was ≤ -4.2.
For the variant C18U G46U G94A C131U, the “polymerase ribozyme fitness (log ratio)” value was -1.88.
Consider A28U C54G C69U C79U A91U U134G, for which the “polymerase ribozyme fitness (log ratio)” value was ≤ -4.2.
G48C C75G C87G A91C C103G U134G U135C: the “polymerase ribozyme fitness (log ratio)” value is ≤ -4.2.
The value for G136C A142C U146A was -2.66; that for C125G U145G was -2.69; that for A40C C51G U61A C95G was ≤ -4.2.
The result for C85G C87U U145G reads -3.08.
On to A39U G70A G88A U127A U144A, for which the “polymerase ribozyme fitness (log ratio)” value was ≤ -4.2.
The result for U7C U53A C85U reads -3.46.
The value for U13G U44A G68C G88A C95A U144A was ≤ -4.2; that for A21C C43A U45G G48C A73G G86U C96G A97C G140U was ≤ -4.2; that for A40U G84U G136U was -3.66.
The value for U4A C27U C38U C51U A106G U109A was -3.72; that for A17U A22U C35U C51U G83U was -1.87.
In the case of C5A C57U C95U C103G, the “polymerase ribozyme fitness (log ratio)” value is -2.24.
Consider C85G A150C, for which the “polymerase ribozyme fitness (log ratio)” value was -4.1.
The value for G48A C85A was -2.56; that for C76A U82C U90C G94C C116U G143A was ≤ -4.2.
The value for A20C G86C C87U G88A C95G was ≤ -4.2.
The result for C14G A30C C35A G48A C87G U102A reads ≤ -4.2; that for C10A A40C U56A C108U G143C, ≤ -4.2; that for A23U C54U C57U G68A C87A A91G G133U, ≤ -4.2.
C96A A120G: the “polymerase ribozyme fitness (log ratio)” value was found to be 0.0421.
The result for A16G U33G C93A C95A C103U A121G reads ≤ -4.2.
The result for A28U C93G reads ≤ -4.2; that for A91G A115C, -3.57; that for U53A G84U C103G U148G, ≤ -4.2.
The result for A16U A41U reads -2.64.
In the case of G80A C93G A97G A115C, the “polymerase ribozyme fitness (log ratio)” value was -3.64.
Consider A12G G59A A66C C79A C108U C116A, for which the “polymerase ribozyme fitness (log ratio)” value was ≤ -4.2.
In the case of A41U A52U C57U U61C, the “polymerase ribozyme fitness (log ratio)” value is ≤ -4.2.
The result for C10G C96G reads -3.62; that for U55A G92U C96A G117A A121U, -1.48; that for U4G U6A U13A C14A U33A A39G, ≤ -4.2.
The value for A20U C38U C85A G86U was ≤ -4.2; that for C96U C114U was -2.66.
Turning to A17G C87U, the “polymerase ribozyme fitness (log ratio)” value is -0.0232.
The value for A142C was -0.793; that for C85U G124A G141C was -0.515; that for U31G G83U was -0.727.
Turning to C14G U15C C76A C85G, the “polymerase ribozyme fitness (log ratio)” value was -3.78.
The value for G65A C69A G84A was -1.8.
Take C93U A119U A121C: the “polymerase ribozyme fitness (log ratio)” value was -1.6.
In the case of A16U G83U C85U C103G U135G, the “polymerase ribozyme fitness (log ratio)” value is ≤ -4.2.
The value for A47G C69U was -1.14.
The value for C14G C32A U61G A120C was ≤ -4.2; that for C54U U82A was -0.0444; that for U55G C125G U151G was ≤ -4.2.
Consider U15C C51A A60U C93A C96G G140A, for which the “polymerase ribozyme fitness (log ratio)” value was ≤ -4.2.
On to A12C G59C C87A A107G A115U A150U, for which the “polymerase ribozyme fitness (log ratio)” value was ≤ -4.2.
The value for A60U C69A A89U was -0.419.
The result for U55A G92U G124C reads -0.918; that for A47C G50A, -1.47; that for A47C G50C A52C C85G C105A G141U, ≤ -4.2.
The value for A28G G86U was -3.52; that for U15A G46U A47C C72U G88U G94A C95G A97G C108G A115G was ≤ -4.2; that for C57U G86U C96A U109A U146A was -2.45.
Turning to C18G C35U U55A G62U G68U C75U C96U, the “polymerase ribozyme fitness (log ratio)” value was ≤ -4.2.
The value for C14U G34A G84U G140U was ≤ -4.2; that for U4G G46A was -0.673; that for G50U A91G C103G was ≤ -4.2.
The value for U7A A37G A47C G59C C72U G84C G88A C108A G141C was ≤ -4.2; that for A17U A24U U56G was -0.773; that for G50A G83C U144A was -2.07.
Take A19U A23U A26U C54U A60G A120U U151G: the “polymerase ribozyme fitness (log ratio)” value was ≤ -4.2.
For U53G C85G, the “polymerase ribozyme fitness (log ratio)” value is -3.69.
The value for U31G A39G C85U G94C was -3.27.
The value for C85A C96A U101C G143A was ≤ -4.2; that for A64C C85G G140A was ≤ -4.2.
The result for C51A C76A G86A reads ≤ -4.2; that for C5G U15G A49U A91U C116A C149G, ≤ -4.2; that for G59U G86A G143U, -3.52.
For G80C G88C C103A A122U A138G, the “polymerase ribozyme fitness (log ratio)” value was ≤ -4.2.
The result for C87U U134C reads -0.522; that for C63A G70A G84A, ≤ -4.2.
In the case of A89C U127A, the “polymerase ribozyme fitness (log ratio)” value is -4.16.
With U9A A60U U61C C72U C93U, the “polymerase ribozyme fitness (log ratio)” value is ≤ -4.2.
The result for G50U G140U reads -3.88; that for C35U C114U U139A, ≤ -4.2; that for A29C C96A U102G G124U, ≤ -4.2.
The value for C10U G83A was -3.44; that for C5G U31A A147C was -0.56.
The result for C5A C36G A49C U61A G84A reads ≤ -4.2.
For A17U C38U C95U A115C A142U, the “polymerase ribozyme fitness (log ratio)” value is -3.52.
The value for C85U U135A was -0.52.
U4C A47C G84A G88A G92U A142G: the “polymerase ribozyme fitness (log ratio)” value is ≤ -4.2.
For the variant U134G U144G, the “polymerase ribozyme fitness (log ratio)” value is -1.51.
Turning to G11U G88C, the “polymerase ribozyme fitness (log ratio)” value was ≤ -4.2.
Regarding A17G C54G C93G A106G G126U G141U U144C, the “polymerase ribozyme fitness (log ratio)” value was ≤ -4.2.
Consider C96A A122U, for which the “polymerase ribozyme fitness (log ratio)” value is -0.0649.
The value for A41C G42A G59C G68A C95U was ≤ -4.2; that for A41C G42A A49G G88C U135A was ≤ -4.2.
The result for A89U G92U A121C G140U reads -3.5.
The value for G50C G74A U77G C93G U135A U139A was ≤ -4.2; that for A60C G71U G92C C108G G117A G124U A137C was -4.08; that for G11C A47U G68C C85A C95A A106G U134C A150G was ≤ -4.2.
For the variant U9G G59U G68C G84U C105A G124A G133C A142C, the “polymerase ribozyme fitness (log ratio)” value is ≤ -4.2.
The result for C93A A97G A113G G124U reads -4.12; that for G65A C96U, -1.03; that for A16U C93U A106C, -3.19.
With C69A G84U A137G, the “polymerase ribozyme fitness (log ratio)” value was -3.58.
The result for G50C C75G reads ≤ -4.2; that for C38G A41U C93G A110C, ≤ -4.2.
Take C96U C99U: the “polymerase ribozyme fitness (log ratio)” value is -0.378.
The value for C18U A40U C85U C96U C116U was 0.0691; that for U44G U45A A47C C54A C57U U61A C93U was ≤ -4.2.
